According to the RNAGym collection of RNA variant scans (doi:10.1073/pnas.2313332121):

B1: TPR t1 (parent)
chain: GACCAAUCUGCCCUCAGAGCUCGAGAACAUCUUCGGAUGCAGAGGAGGCAGGCUUCGGUGGCGCGAUAGCGCCAACGUCCUCAACCUCCAAUGCAUCCCACCACAUGAUGAUGCCUGAAGAGCCUUGGUUUUUUG

Variants of: B1
Assay: polymerase ribozyme fitness, log enrichment relative to wild type (log ratio); higher = more active; in vitro selection for triplet polymerase activity
In short: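 Fitness compares each genotype's enrichment to that of the wild type on a logarithmic scale, averaging replicates with inverse-variance weights. The logarithm is base 2. Enrichment came from Illumina sequencing of input and output libraries after one triplicate round of in vitro selection, which included frozen incubation at −7 °C, of PCR-built, transcribed mutant libraries of each subunit of a heterodimeric triplet polymerase ribozyme. Only genotypes with ≥10 input reads and ≥1 read per output were kept.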

Variant	polymerase ribozyme fitness (log ratio)
U78C C123A	0.196
C85A G117A	-2.97
C86U C102A U112A C114A	-4.14
A84G G120A	-0.185
A83C C101A	-1.18
U81G G127C	-4.77
C85U A100U	-1.79
C85U A100C	-1.76
U78C A84C	-0.194
A83U C89U U96C U131G	-1.02
A83U G127U	-1.08
C82A C99U	-4.04
U81C C123A	-0.309
C79G C94A	-2.62
C85U G120U	0.655
C85U G120C	0.93
C80U G128C	-3.33
U78C C85G C124A	-0.513
U87C G110U	-0.496
C79A C82U	-0.745
C80U A84U C89U A119G C123A	0.318

Variant	polymerase ribozyme fitness (log ratio)
U81A U112A	0.19
U81A U112G	-0.661
U78C C80U C89U G117C A119G	-1.72
A84U C123A	-0.143
U78G C114G U129A	-4.16
U81A U87A	-1.41
U78G C98U	-0.646
U81G U112A	-4.16
C80U C88G	-1.25
U78C A83C	0.0151
C86A C101U	-0.0895
A83C A84C A119G	0.957
U78G C102G	-4.94
U87A C88A G110U G127A	-3.99
C79U C80U C104U	-1.54
A84U G93U	-1.44
A84U G93A	-1.11
C85U A118G	-0.773
U78C A83C C94U G110A A118U G120U U132C	-2.85
C79U A121C	1.81
U78A G117C A121C	-5.24

Variant	polymerase ribozyme fitness (log ratio)
U87A C99U	-3.14
U81C C82A C98U	-3.03
U87G G120A	0.0419
C79U A111U U112A C124A	1.11
C82U U112A	1.08
C79U C80A	-3.65
G77C U96A	-1.58
C82A C98A C114U	-5.87
C79A C123U	0.304
G77A C85A	-2.93
G77C C85A	-1.93
U81A C115G	-2.4
C85U G113U	-3.63
U87A A111G G127C U131A	-3.23
C85A G113A A121C	-2.05
C85G C88U	-0.339
C86U U131G	-0.498
C80G A105C U116A C123G	-7.31
C80U C123A	-0.37
C82G A84G	-0.89
C85G A111C	-3.12

Variant	polymerase ribozyme fitness (log ratio)
C85U U133A	-0.839
C79G U126G	-2.94
A84U U112C	1.2
U87G U129C	0.0365
A84U G110C U130C	-4.16
G77C G122A U130A	-1.41
A84C C88A	-0.593
C85G C94U C97U G120C	-0.74
G77C C86G	-1.47
C79U A90G G107U	-4.88
C85G G110C	-4.96
C82A C89A	-2.78
A84G G122A	-1.44
U81G G122U C123G U129A	-4.51
A83U C89A U96A	-2.34
C86U U112A C123U	0.628
G77U G122A U130G	-0.666
C80A C123U	-2.06
G77C C86A G117A	-3.88
U87G U92A G110A	-4.75
C85G U106G	-2.45
